Measured values reported in patent US20250268939A1.

Target: BAFF-R Liama IgG2b Fc Tag recombinant protein (Acro, Cat. No.: BAR-H5258) (UniProt Q96RJ3)
Test: flow cytometry; control T cells expressing only EGFRt incubated with BAFF-R llama IgG2b Fc protein at 10 ug/mL, detected with FITC-anti llama IgG

Chain of UniProt Q96RJ3 (Q96RJ3 7-71): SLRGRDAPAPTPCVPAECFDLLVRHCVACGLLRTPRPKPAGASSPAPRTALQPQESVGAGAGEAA

- positive rate: 0.65%
Substance: EGFRt (from UniProt P00533 334-668) (receptor)
